Experimental data reported in PMC5730846.

Target: recombinant Hsp90α (human) (UniProt P07900)

B1: Tsc1-D-His6 (domain or fragment)
chain: DGCSDSMVGHNEEASGHNGETKTPRPSSARGSSGSRGGGGSSSSSSELSTPEKPPHQRAGPFSSRWETTMGEASASIPTTVGSLPSSKSFLGMKARELFRNKSESQCDEDGMTSSLSESLKTELGKDLGVEAKIPLNLDGPHPSPPTPDSVGQLHIMDYNETHHEHS
  inhibition of Hsp90α ATPase activity in vitro (PiPer Phosphate Assay) by 100 nM Tsc1-D: 72%
